Results: PMC7301450

Molecular target: α-CD64-scFv
Assay: ELISA; wells coated with 10 μg/mL α-CD64-scFv overnight at 4 °C, blocked with 3% BSA/PBS; recombinant CD64 at 0, 0.5, 1.0, 5.0 and 10 ng/mL, room temperature 2 h; detected with rabbit anti-CD64 polyclonal antibody, anti-rabbit HRP and TMB, read at 370 nm

Sequence of α-CD64-scFv (heavy, as listed by the source, chain 1 of 2): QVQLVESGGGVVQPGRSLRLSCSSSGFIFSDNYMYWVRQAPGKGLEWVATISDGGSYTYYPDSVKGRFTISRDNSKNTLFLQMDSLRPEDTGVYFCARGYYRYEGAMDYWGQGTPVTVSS
Sequence of α-CD64-scFv (light, as listed by the source, chain 2 of 2): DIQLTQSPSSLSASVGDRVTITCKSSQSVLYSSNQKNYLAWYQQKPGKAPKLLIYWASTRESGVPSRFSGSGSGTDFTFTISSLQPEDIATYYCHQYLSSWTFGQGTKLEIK

maximum absorbance (at 5 ng/mL CD64): 0.236 absorbance
Substance: recombinant human CD64 (from UniProt P12314 16-292) (receptor)
